These results are taken from the supplement of paper PMC9170038.

In data set [1] the test system is MS2 coat protein. As to the kind of experiment: apparent KD of MS2 coat protein; higher = weaker reporter binding. The note with it: Eterna round: R101. As to the method:
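RNA-MaP: designed FMN/MS2 RNA switches (84 nt design region) are transcribed on-chip within common flanks and titrated with SNAP-549-labelled MS2 coat protein (about 1-3000 nM) in 100 mM Tris pH 7.5, 80 mM KCl, 4 mM MgCl2, without or with 200 uM FMN. Median apparent KD per design; activation ratio = KD,OFF / KD,ON.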

Data set [2] concerns MS2 coat protein. As to the kind of experiment: apparent KD of MS2 coat protein, switch OFF state (with FMN for OFF switches, without FMN for ON switches); designed switch direction (-1 OFF switch, 1 ON switch): 1; higher = weaker reporter binding. The note with it: FMN input: 0 or 200 uM; Eterna round: R93 (includes R88 designs). Put shortly:
(§1)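 Apparent KD was obtained for each design as the median of normalised binding-curve fits over its clusters. RNA switches transcribed on-chip from Illumina sequencing clusters were titrated with SNAP-549-labelled MS2 coat protein (twofold steps, 0.7 or 1.5 nM to 3 µM) in 100 mM Tris-HCl pH 7.5, 80 mM KCl, 4 mM MgCl2, without or with constant ligand.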

For data set [3], the system named is MS2 coat protein. As to the kind of experiment: apparent KD of MS2 coat protein, switch ON state; designed switch direction (-1 OFF switch, 1 ON switch): 1; higher = weaker reporter binding. Conditions: FMN input: 0 or 200 uM; Eterna round: R93 (includes R88 designs). Put shortly:
as §1

As for “AAAGAUUUUCAAGGAUAUCAGUGGCAAAGCCACUGAGAAGGUGAGGAUCACCCACCUACGUGACGCUGGAAACAGCGUCACGAA [#SharedSequence ExNG1 - 26] (puzzle (switch architecture): Exclusion NG 1)”, the “apparent KD of MS2 coat protein” value was determined as 64.5 nM in the data set with MS2 coat protein [1] (input ligand: FMN 200 uM) and 21 nM in the data set with MS2 coat protein [1] (input ligand: none).

For “AAAUAAAUCGAAGGAUAUCAGGGUGCACCUCAGUAAAACUGAGGUGCACCCUGAGAAGGUCGAGGAUCACCCGAUCUAAAUAAA [#SharedSequence SLExNG1: 2-2] (puzzle (switch architecture): Small Loop Exclusion NG 1)”, the entries for the “apparent KD of MS2 coat protein” value with MS2 coat protein [1] (input ligand: FMN 200 uM) and in the data set with MS2 coat protein [1] (input ligand: none) were 114 nM and 19.3 nM, respectively.

With “AAAUAACUUGAAGGAUAUGACCCUCGAGGUGACUAAAAGUCACCUCGAGGGUCAGAAGGUCGAGGAUCACCCGACCUAGUGAAA [#SharedSequence SLExNG1: 7-1] (puzzle (switch architecture): Small Loop Exclusion NG 1)”, the “apparent KD of MS2 coat protein” value was determined as 7.61 nM with MS2 coat protein [1] (input ligand: FMN 200 uM) and 7.54 nM in the data set with MS2 coat protein [1] (input ligand: none).

With “AAUAAAACUCAAGGAUAUGACUCCGAAACGGAGUCAGAAGGUGAGGAUCACCCACCUAGCUCAGCGUCGAAAGACGCUGAGCAA [#SharedSequence ExNG1 - 32] (puzzle (switch architecture): Exclusion NG 1)”, the figures for the “apparent KD of MS2 coat protein” value in the data set on MS2 coat protein [1] (input ligand: FMN 200 uM) and in the data set with MS2 coat protein [1] (input ligand: none) were 42 nM and 9.01 nM, respectively.

As to “AUAUAUAUAAGGUAGGAUAUACUAAAGUAAACAUGAGGAUCACCCAUGUAAAGAAAGAAACUCAUGUAGAAGGACCAUAUAUAUA [Original: 77%, More Tesla, 1]”, the “apparent KD of MS2 coat protein” value in the data set on MS2 coat protein [2] came out at 99.9 nM; with MS2 coat protein [3], 21.3 nM.

With “AUAUGAGCUAUGGAGGAUAUCCAUAACAAGACAUGAGGAUCACCCAUGUAAUCAAAACAAUAAUGGGAGAAGGCCAUAGCUCAAU [SS 2 M47]”, the figures for the “apparent KD of MS2 coat protein” value in the data set on MS2 coat protein [2] and with MS2 coat protein [3] were 50.9 nM and 76.3 nM, respectively.

For “AUUAUUAUUACGCAGGAUAUCGAGGUUUUUACAUGAGGAUCACCCAUGUUUUUUUUUUUAUAUUACGAGAAGGGCGAUAUUAUUA [salish99-SS2-01]”, the “apparent KD of MS2 coat protein” value was determined as 21.9 nM in the data set with MS2 coat protein [2] and 22.9 nM with MS2 coat protein [3].

For the sequence “CAGAGACAUGAGGAUCACCCAUGUAGGAUUAUGGGAGGAUAUACAAAGACGAGAGUCAGAGUAGAAGGCCUAGGAC [salish99-ss1-144]”, the “apparent KD of MS2 coat protein” value in the data set with MS2 coat protein [2] turned out to be 45.6 nM; in the data set with MS2 coat protein [3], 20.8 nM.

Turning to “CAGGGACAUGAGGAUCACCCAUGUGGGAUUAUGGGAGGAUAUACAAAGACGAGAGUCAGAGUAGAAGGCCUAGGAC [salish99-ss1-128]”, the “apparent KD of MS2 coat protein” value is 85.7 nM in the data set on MS2 coat protein [2] and 37.3 nM with MS2 coat protein [3].

Regarding “CGGAAGGAGAGAGAGGAUAUCCAAAGGAAAACAUGAGGAUCACCCAUGUAGAAGGUAGGAAAUUGGGAGAAGGCUCAAGAGAGAG [salish99-ss2-119(!)]”, the “apparent KD of MS2 coat protein” value in the data set with MS2 coat protein [2] is 51.4 nM; in the data set on MS2 coat protein [3], 37.4 nM.

In the case of “CGGAGACAUGAGGAUCACCCAUGUGAGAAGAGGCGAGGAUAUCGAAAGAAAGAAGAGAAACGAGAAGGCGCGAGCU [salish99-SS1-072]”, the “apparent KD of MS2 coat protein” value in the data set with MS2 coat protein [2] is 27.6 nM; with MS2 coat protein [3], 23.1 nM.

As to “CUCAGGAAGAGAGAGGAUAUCCAAAGGAAAACAUGAGGAUCACCCAUGUAAAAGGUAGGAAAUUGGGAGAAGGCUCAAGAGAGAG [salish99-ss2-096]”, the results for the “apparent KD of MS2 coat protein” value in the data set with MS2 coat protein [2] and in the data set with MS2 coat protein [3] were 40 nM and 22.3 nM, respectively.

On to “CUGGACAUAGUACAGGAUAUAUGAAUAGUCACAUGAGGAUCACCCAUGUCCAUUUAUAUGGGCACAUAGAAGGGUGGUAGUUAAG [Mat - Same state - Malcolm Mod - D139]”, for which the “apparent KD of MS2 coat protein” value in the data set on MS2 coat protein [2] is 41.2 nM; in the data set on MS2 coat protein [3], 4.52 nM.

On to “CUUAGACAUGAGGAUCACCCAUGUCGAACAAACAAAGGAUAUGGGAGCCGAAGACGGCUAUUAGAAGGUUGCAAAA [Anrioned]”, for which the results for the “apparent KD of MS2 coat protein” value with MS2 coat protein [2] and with MS2 coat protein [3] were 26.4 nM and 28 nM, respectively.

As to “GAAAAACAUGAGGAUCACCCAUGUAGAAAUAUGGGAGGAUAUACGAAGACGAAAGUCAAAGUAGAAGGCCUAAGAA [Mat - Same State 1 - Eli mod - D109]”, the “apparent KD of MS2 coat protein” value worked out at 87.8 nM in the data set with MS2 coat protein [2] and 21.7 nM with MS2 coat protein [3].

As for “GAAAAACAUGAGGAUCACCCAUGUCAAUAUAUGGGAGGAUAUACAAAGACGAAAGUCAAAGUAGAAGGCCUAAAAG”, the “apparent KD of MS2 coat protein” value with MS2 coat protein [2] is 66.4 nM; in the data set with MS2 coat protein [3], 18.3 nM.

For the sequence “GAAAAACAUGAGGAUCACCCAUGUGAAAAUAUGGGAGGAUAUACGAAGACGAAAGUCAAAGUAGAAGGCCUAAAAG [Garnet 31]”, the “apparent KD of MS2 coat protein” value amounted to 87.9 nM with MS2 coat protein [2] and 23.8 nM with MS2 coat protein [3].

As for “GAAGAACAUGAGGAUCACCCAUGUGUAGAAGCAUGAGGAUAUGUAAGUCAAAGAAAAACGAUAGAAGGCAUGGAGA [JR_SS001_Sub1714]”, the “apparent KD of MS2 coat protein” value was determined as 119 nM in the data set on MS2 coat protein [2] and 141 nM in the data set on MS2 coat protein [3].

With “GAAGACAUAGUUCAGGAUAUGGGAAUAGUCACAUGAGGAUCACCCAUGUGCAUUUAUAUGCGCGCUCAGAAGGGAGGUAGAUAUA [SameState2 Malc#19]”, the “apparent KD of MS2 coat protein” value in the data set with MS2 coat protein [2] turned out to be 33.5 nM; in the data set on MS2 coat protein [3], 21 nM.

On to “GACUGACAUGAGGAUCACCCAUGUAUUCAAACAUGAGGAUAUAUGACACGUCAUCGACGGAUAGAAGGCAUAGAUG [JR_SS001_Sub1210]”, for which the “apparent KD of MS2 coat protein” value in the data set with MS2 coat protein [2] came out at 205 nM; in the data set on MS2 coat protein [3], 163 nM.

With “GAGAGACAUGAGGAUCACCCAUGUAGGAUUAUGGGAGGAUAUACAAAGACGAGAGUCAGAGUAGAAGGCCUAGGAC [salish99-ss1-140]”, the “apparent KD of MS2 coat protein” value came to 56.7 nM in the data set with MS2 coat protein [2] and 23.4 nM in the data set with MS2 coat protein [3].

Consider “GAUAAACAUGAGGAUCACCCAUGUAGAUAUAUGGGAGGAUAUACAAAGACGAUAGUCAAAGUAGAAGGCCUAAAAG [77%, Mat - Mod of Eli - With 3 more U's]”, for which the “apparent KD of MS2 coat protein” value in the data set with MS2 coat protein [2] turned out to be 79.2 nM; with MS2 coat protein [3], 28.6 nM.

With “GCAGGGCCACACUAGGAUAUGGGUGUCUAGACAUGAGGAUCACCCAUGUUAUGGCAAAACAAAGCUCAGAAGGAGUCGUGGCCCA [Tizasozaer]”, the “apparent KD of MS2 coat protein” value with MS2 coat protein [2] stood at 36 nM; with MS2 coat protein [3] it was 11.8 nM.

With “GCCUAACAUGAGGAUCACCCAUGUAGUGGGUUGUUAGGAUAUGGGCCGCAUUACGCUGCACCAGAAGGAAUAGAAG [Rasoraer]”, the “apparent KD of MS2 coat protein” value with MS2 coat protein [2] is 475 nM; with MS2 coat protein [3] it was 319 nM.

Turning to “GGAAAACAUGAGGAUCACCCAUGUAGAAAUAUGGGAGGAUAUACAAAGACGAAAGUCAAAGUAGAAGGCCUAAAAG [salish99-SS1-084]”, the “apparent KD of MS2 coat protein” value with MS2 coat protein [2] came to 60.2 nM; in the data set with MS2 coat protein [3], 33.9 nM.

As for “GGGAAGAAGAGAGAGGAUAUCCAAAGGAAAACAUGAGGAUCACCCAUGUAAAAGGAAGGAAAUUGGGAGAAGGCUCAAAAGAGGA [salish99-ss2-025]”, the “apparent KD of MS2 coat protein” value with MS2 coat protein [2] worked out at 51.6 nM; in the data set with MS2 coat protein [3] it was 21.6 nM.

For the sequence “GUCCAACAUGAGGAUCACCCAUGUGCAUGACACCGAGGAUAUGGGACUAAAGGUGCUGGACCAGAAGGCGGAAGAA [Laceus]”, the entries for the “apparent KD of MS2 coat protein” value with MS2 coat protein [2] and in the data set on MS2 coat protein [3] were 45.8 nM and 27.1 nM, respectively.

On to “GUGAAGGAGAGAGAGGAUAUCCAAAGGAAAACAUGAGGAUCACCCAUGUAGAAGGUAGGAAAUUGGGAGAAGGCUCAAGAGAGAG [salish99-ss2-114]”, for which the “apparent KD of MS2 coat protein” value with MS2 coat protein [2] is 39.5 nM; with MS2 coat protein [3] it was 27 nM.

Regarding “GUGGUACAUGAGGAUCACCCAUGUGUGGGAGCAUGAGGAUAUGUCAGUCCAUGAAAUACGAUAGAAGGCAUGGUGA [JR_SS001_Sub1712]”, the “apparent KD of MS2 coat protein” value in the data set on MS2 coat protein [2] amounted to 264 nM; with MS2 coat protein [3] it was 234 nM.

“UAAAAACAUGAGGAUCACCCAUGUAGAAAUAUGGGAGGAUAUACAAAGACGAAAGUCAAAGUAGAAGGCCUAAAAU [Mat - Same State 1 - Eli mod - 32]”: the “apparent KD of MS2 coat protein” value stood at 62.2 nM with MS2 coat protein [2] and 16.5 nM with MS2 coat protein [3].

Take “UACAGACAUGAGGAUCACCCAUGUAGAAUUAUGGGAGGAUAUACAAAGACGAGAGUCAGAGUAGAAGGCCUAGGAG [salish99-ss1-165]”: the “apparent KD of MS2 coat protein” value in the data set on MS2 coat protein [2] is 56.9 nM; with MS2 coat protein [3], 25.2 nM.

Take “UAUAGACAUGAGGAUCACCCAUGUAGAAUUAUGGGAGGAUAUACAAAGACGAGAGUCAGAGUAGAAGGCCUAGGAG [salish99-ss1-153]”: the “apparent KD of MS2 coat protein” value stood at 63.4 nM in the data set with MS2 coat protein [2] and 31.8 nM in the data set with MS2 coat protein [3].

For the sequence “UCCUUACAUGAGGAUCACCCAUGUCGCAGGAAUCAAGGAUAUGGGACCGCAAGACGGAAACCAGAAGGUGAAAUAU [Gedizala]”, the “apparent KD of MS2 coat protein” value in the data set with MS2 coat protein [2] was found to be 287 nM; with MS2 coat protein [3], 181 nM.

“UUUAAUUAUACGAAGGAUAUCGGUAAUUAGACAUGAGGAUCACCCAUGUUAUAUGGUUCCAUAUUCGAGAAGGUCGCGGGUGAAC [JR_SS002_Sub508]”: the “apparent KD of MS2 coat protein” value with MS2 coat protein [2] was determined as 19.3 nM; with MS2 coat protein [3], 45.6 nM.

Regarding “UUUAAUUGCGGGCAGGAUAUGUAUUAAAAUACAUGAGGAUCACCCAUGUGCGGGUGUAACACCCGACAGAAGGGCCAAUCGCGAC [Bearisan]”, the “apparent KD of MS2 coat protein” value with MS2 coat protein [2] is 300 nM; in the data set on MS2 coat protein [3], 64.7 nM.
